T1: GFP-p19^Arf (Mus musculus, UniProt Q64364)
T1 construct: expressed in transfected cells; host or cells: NIH 3T3 Arf-/- cells
T1 sequence (Q64364 1-169): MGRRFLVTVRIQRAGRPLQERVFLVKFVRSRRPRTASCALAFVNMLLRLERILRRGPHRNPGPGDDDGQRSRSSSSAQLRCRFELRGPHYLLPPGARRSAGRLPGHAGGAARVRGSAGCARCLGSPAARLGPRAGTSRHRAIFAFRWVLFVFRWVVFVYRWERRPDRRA

T2: mArfN37 (Mus musculus, UniProt Q64364)
T2 construct: mouse p19^Arf corresponding to residues 1-37 (mArfN37); made in house; host or cells: E. coli BL21(DE3) (purified 'in a similar manner' to the Hdm2 fragments)
T2 sequence (Q64364 1-37 limits assumed): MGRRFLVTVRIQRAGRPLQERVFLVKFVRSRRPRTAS


Tests used:
GFP-p19^Arf = target: T1, GFP-p19^Arf; assay: Microinjection and live cell imaging of Texas Red labeled Hdm2 constructs in NIH 3T3 cells lacking Arf; format: cell-based; conditions: transfected with GFP-p19^Arf
Procedure: Fluorescent labeling. Proteins for fluorescence microimaging studies were covalently modified using an amine-reactive, sulfosuccinimidyl ester of TEXAS RED® (C31H29S2N2O6Cl1) (Molecular Probes, Inc., Cat. # C-1171). In brief, purified Hdm2-derived proteins were dialyzed into 100 mM sodium bicarbonate buffer, pH 8.3 at 2-4 mg/ml. The Texas Red™ dye was dissolved in dimethylsulfoxide at 10 mg/ml. Protein and dye 3:1 (vol:vol) were reacted for 1 hour at room temperature followed by purification using size-exclusion chromatography (NAP 5 G-25 columns, Amersham Pharmacia Biotech, Inc.). […]
Cell culture and microinjection. […] GFP-Arf positive cells were then located and co-injected with TEXAS RED® (C31H29S2N2O6C1 labeled Hdm2 polypeptides (2 mg/ml in 20 mM Tris-HCl, 100 mM NaCl, pH 7.0) using a Micromanipulator 5171/Transjector 5246 (Eppendorf, AG) in media supplemented with 10 mM HEPES, pH 7.2 to buffer cell media during injection and imaging. Representative cells were imaged over time. An Axiovert 135 TV inverted fluorescence microscope with an automated stage controller (Carl Zeiss, Inc.) and circulating water bath heater (Fisher) was used for both microinjection and imaging. Images were acquired with a Zeiss 40×NA=1.30 oil objective and MicroMax CCD camera (Princeton Instruments Inc.) operated with MetaMorph Version 4.01 imaging software. […]

mArfN37 = target: T2, mArfN37; assay: Surface plasmon resonance: Hdm2 fragments and peptides binding to immobilized His-tagged mArfN37; conditions: Hdm2 protein fragments as analyte; no binding to control surface
Procedure: Surface Plasmon Resonance. Binding studies were performed using a Biacore 3000 surface plasmon resonance (SPR) instrument (Biacore, Inc.). A Tetra-His™ Antibody (Qiagen, Inc.; Cat. #34670) was covalently attached to a carboxymethylated gold surface (C-1 chip; Biacore, Inc.). The carboxymethyl groups on the surface were activated with N-ethyl-N′-(3-dimethylaminopropyl) carbodiimide (EDC) and N-hydroxysuccinimide (NHS) and the antibody was attached at pH 7.4 in 20 mM sodium phosphate buffer, 150 mM NaCl (PBS). Reactive sites remaining on the surface were blocked by reaction with ethanolamine. […] Binding was measured by flowing the non-His-tagged analyte through the reference and ligand-containing flow cells in sequence. […] Changes in the SPR response due to solvent differences and the injection process were monitored by injection of HBS-N buffer alone. […]
Small segments of Arf and Hdm2 participate in Arf/Hdm2 interactions. […] However, because mArfN37 is a relatively small polypeptide, it was determined whether it could bind a correspondingly small segment of Hdm2. To test this hypothesis and to monitor Arf/Hdm2 binding reactions quantitatively, Hdm2 constructs were prepared spanning amino acids 210-304 of SEQ ID NO:8 and 210-275 of SEQ ID NO:8 and then it was determined whether they could bind mArfN37 using surface plasmon resonance (SPR). […]

binding of Hdm2 fragment to His-tagged mArfN37 immobilized on SPR biosensor surface (mArfN37) | Molecule | localization after nuclear microinjection in the presence of GFP-p19^Arf (GFP-p19^Arf)
 | Hdm2 277-350: Texas Red labeled Hdm2 deletion construct containing residues 277-350 (protein) QVTVYQAGESDTDSFEEDPEISLADYWKCTSCNEMNPPLPSHCNRCWALRENWLPEDKGKDKGEISEKAKLENS | localized in the nucleoplasm rather than in nucleoli
bind tightly | Hdm2 210-275: fragment of Hdm2 corresponding to residues 210-275 of SEQ ID NO:8 (protein, listed as Homo sapiens) SSSSESTGTPSNPDLDAGVSEHSGDWLDQDSVSDQFSVEFEVESLDSEDYSLSEEGQELSDEDDEV | nucleolar localization

Source: patent US7704703B2, “Arf and Hdm2 interaction domains and the methods of use thereof” (St. Jude Children's Research Hospital, Inc., priority 2002, dated 2010)
